Test results from publication PMC10707181, “Neuronal Scaffold Protein ARMS Interacts with Synaptotagmin-4 C2AB through the Ankyrin Repeat Domain with an Unexpected Mode” (International Journal of Molecular Sciences, 2023).
Positions count from the first letter of the chain named.

How the values were obtained:
[1] = target: T1, Syt4 C2AB (residues 151–425) (human, UniProt Q9H2B2-1 151-425); test: ITC; ARMS proteins (200 μM) in the syringe, Syt4 proteins (20 μM) in the cell; 25 °C; 50 mM Tris, 100 mM NaCl, 1 mM EDTA, 1 mM DTT, pH 7.8; one-site binding model; details: both partners purified
T1 construct: also called Syt4 CAB; source: E. coli BL21 (DE3), purified (Ni-NTA, size-exclusion chromatography)
T1 sequence (looked up): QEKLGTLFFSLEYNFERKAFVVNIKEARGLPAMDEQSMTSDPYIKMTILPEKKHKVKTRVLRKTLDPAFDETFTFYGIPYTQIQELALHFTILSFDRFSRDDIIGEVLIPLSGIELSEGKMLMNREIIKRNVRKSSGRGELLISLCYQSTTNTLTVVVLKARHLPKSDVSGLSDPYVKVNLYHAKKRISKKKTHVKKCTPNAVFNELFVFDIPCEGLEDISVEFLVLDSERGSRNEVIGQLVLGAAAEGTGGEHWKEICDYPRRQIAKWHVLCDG

[2] = target: T2, Syt4 132-425 R283A,K284A (Homo sapiens); test: ITC
T2 chain: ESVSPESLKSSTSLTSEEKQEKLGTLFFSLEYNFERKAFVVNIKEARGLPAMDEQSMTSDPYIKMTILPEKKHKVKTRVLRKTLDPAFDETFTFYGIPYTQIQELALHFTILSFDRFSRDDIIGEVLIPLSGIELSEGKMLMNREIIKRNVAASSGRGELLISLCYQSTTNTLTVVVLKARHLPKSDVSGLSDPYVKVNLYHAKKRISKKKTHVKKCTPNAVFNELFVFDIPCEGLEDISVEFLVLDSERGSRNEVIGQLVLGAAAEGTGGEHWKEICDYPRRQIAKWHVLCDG

[3] = target: T3, Syt4 132–425 Q186A (human, UniProt Q9H2B2-1 132-425, Q186A); test: ITC
T3 sequence: T2 chain with Q55A, A152R, A153K

[4] = target: T4, Syt4 132-425 R288A (Homo sapiens); test: ITC
T4 chain: T2 chain with A152R, A153K, R157A

[5] = target: T5, Syt4 132–425 (human, UniProt Q9H2B2-1 132-425); test: ITC
T5 chain: T2 chain with A152R, A153K

[6] = target: T6, Syt4 132–425 K284A (human, UniProt Q9H2B2-1 132-425, K284A); test: ITC
T6 sequence: T2 chain with A152R

[7] = target: T7, Syt4 132-425 K279A,R280A (Homo sapiens); test: ITC
T7 chain: T2 chain with K148A, R149A, A152R, A153K

[8] = target: T8, Syt4 132-425 K279A,R280A,R283A (Homo sapiens); test: ITC
T8 chain: T2 chain with K148A, R149A, A153K

[9] = target: T9, Syt4 132-425 R283A (Homo sapiens); test: ITC
T9 chain: T2 chain with A153K

[10] = target: T10, full length of the cytoplasmic region of Syt4 (CD, residues 41–425) (human, UniProt Q9H2B2-1 41-425); test: ITC; ARMS proteins (200 μM) in the syringe, Syt4 proteins (20 μM) in the cell; 25 °C; 50 mM Tris, 100 mM NaCl, 1 mM EDTA, 1 mM DTT, pH 7.8; one-site binding model; details: both partners purified
T10 construct: also called Synaptotagmin-4 CD; source: E. coli BL21 (DE3), purified (Ni-NTA, size-exclusion chromatography)
T10 sequence (looked up): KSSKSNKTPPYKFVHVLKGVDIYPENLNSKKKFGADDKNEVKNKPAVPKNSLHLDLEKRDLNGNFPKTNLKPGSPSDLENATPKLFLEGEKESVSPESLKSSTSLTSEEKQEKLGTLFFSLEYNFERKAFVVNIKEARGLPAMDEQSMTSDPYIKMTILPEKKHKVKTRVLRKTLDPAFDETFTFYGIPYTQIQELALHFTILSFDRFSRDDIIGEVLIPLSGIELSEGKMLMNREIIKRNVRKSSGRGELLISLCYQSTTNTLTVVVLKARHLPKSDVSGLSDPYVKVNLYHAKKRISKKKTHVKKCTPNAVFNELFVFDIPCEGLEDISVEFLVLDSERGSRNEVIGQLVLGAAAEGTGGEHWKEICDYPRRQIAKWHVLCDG

B1: ARMS R1-8 (residues 1–270) (domain or fragment, rat, UniProt Q9EQG6 1-270, looked up)
chain: MSVLISQSVINYVEEENIPALKALLEKCKDVDERNECGQTPLMLAAEQGNVEIVKELLKNGANCNLEDLDNWTALISASKEGHIHIVEELLKSGASLEHRDMGGWTALMWACYKGRTDVVELLLSHGANPSVTGLYSVYPIIWAAGRGHADIVHLLLQNGAKVNCSDKYGTTPLVWAARKGHLECVKHLLAMGADVDQEGANSMTALIVAVKGGYTQSVKEILKRNPNVNLTDKDGNTALMIASKEGHIEIVQDLLDAGTYVNIPDRSGD
notes: ARMS (Kidins220), rat, UniProt Q9EQG6, residues 1-270: ankyrin repeats 1-8; also called ARMS ankyrin repeats 1–8; source: E. coli BL21 (DE3), purified (Ni-NTA, size-exclusion chromatography)
Binder B1 has a Kd [1] of ~11 µM.

B2: ARMS ankyrin repeats 1–11 (R1-11, residues 1–365) (domain or fragment, rat, UniProt Q9EQG6 1-365, looked up)
chain: MSVLISQSVINYVEEENIPALKALLEKCKDVDERNECGQTPLMLAAEQGNVEIVKELLKNGANCNLEDLDNWTALISASKEGHIHIVEELLKSGASLEHRDMGGWTALMWACYKGRTDVVELLLSHGANPSVTGLYSVYPIIWAAGRGHADIVHLLLQNGAKVNCSDKYGTTPLVWAARKGHLECVKHLLAMGADVDQEGANSMTALIVAVKGGYTQSVKEILKRNPNVNLTDKDGNTALMIASKEGHIEIVQDLLDAGTYVNIPDRSGDTVLIGAVRGGHVEIVRALLQKYADIDIRGQDNKTALYWAVEKGNATMVRDILQCNPDTEICTKDGETPLIKATKMRNIEVVELLLDKGAKVSAVD
notes: ARMS (Kidins220), rat, UniProt Q9EQG6, residues 1-365: ankyrin repeats 1-11; also called ARMS R1-11; ARMS R1-11 WT; source: E. coli BL21 (DE3), purified (Ni-NTA, size-exclusion chromatography)
With B2 the Kd [2] was 4 µM, the Kd [3] was 3 µM and the Kd [4] was 10 µM. For the same binder, the Kd [5] was 12 µM, the Kd [6] was 3 µM and the Kd [7] was 9 µM. The Kd [8] was 19 µM, the Kd [9] was 4 µM and the Kd [10] was ~11 µM.
